Measured values reported in the DeepSol protein solubility set.

Assay: soluble on expression in E. coli; label from the status in PepcDB or PDB records

Question: For “MAGQISPTRSALLASKASLKTANGGADLLKRKRDALIGEFFALVKDALAAREQLSSVSKGAYTSLFGAKAWDSPEAVESLSLAGTGDYAVDMQIESIYGVKVPKINIPERAAQADFSPINVGARTIQASNDFGGVLEAIVKVAATETKLRRIGEEIKKTSRRVNALEQVVIPGIHDDIRFIRSVLDQREREAGYTQKKIKAKIEGKNKEAREAAAATSHGSAADAAALEHHHHHH”, which “soluble on expression in E. coli” value is on record?
Answer: not soluble

Question: For “MAGQLTFKRELEKVFEKELKKRIERIGKTPLSPLSLILFTRIAELSAIENGYIRPTEYEMREIFAARTTYSEGLLSTLKDIIYSHFLRSNLGEHLEDFIYTLQRIEDIQSKIDELILREMREVSLRKVYHELLRFLLDMLCDKDMVRFD”, which “soluble on expression in E. coli” value is on record?
Answer: not soluble

Question: With “MAGRVKWVTDIEKSVLINNFEKRGWIQVTENEDWNFYWMSVQTIRNVFSVETGYRLSDDQIVNHFPNHYELTRKDLMVKNIKRYRKELEKEGSPLAEKDENGKYLYLDFVPVTYMLPADYNLFVEEFRKSPSSTWIMKPCGKAQGKGIFLINKLSQIKKWSRDSKTSSFVSQSTKEAYVISVYINNPLLIGGRKFDLRLYVLVSTYRPLRCYMYKLGFCRFCTVKYTPSTSELDNMFVHLTNVAIQKHGEDYNHIHGGKWTVNNLRLYLESTRGREVTSKLFDEIHWIIVQSLKAVAPVMNNDKHCFECYGYDIIIDDKLKPWLIEVNASPSLTSSTANDRILKYNLINDTLNIAVPNGEIPDCKWNKSPPKEVLGNYEILYDEELAQGDGAERELRNRPGQPVGPRAGRSRDSGRSVLTTWK” as the sequence, how does the “soluble on expression in E. coli” value read?
Answer: not soluble

Question: With “MAGSKKSNRREEILQALAQMLESAEGASRITTAKLAKQVGVSEAALYRHFPSKARMFEGLIEFIEEALMTRINRILDDEKDTLERIRMVMHLILAFSERNPGLTRILSGHALMFENERLRERINQLFERIETQLRQILRERKIREGKSFPVEERILAAQILGQVEGSLNRFVRSDFKYQPTANFDEYWALLSAQIK” as the sequence, how does the “soluble on expression in E. coli” value read?
Answer: not soluble

Question: With “MAHDWEKVLLSPDTPAESALRVLDDSGLRLVLVVDEQRRLLGTLTDGDVRRALLRHVNFMTAAVADIMHREPRVALASASREQLRHLMEQHSLLHIPLLDHDDRVVGLETYQEVLQRPRRDNWVFLMAGGFGKRLRPLTDNCPKPMLLVGGKPMLQTILEGFIAAGFHRFYISVHYLPETIKNYFGDGSKWGVTIVYIEEDQPLGTGGALGLLPGTDDLPIIMMNGDILTRLDFNALLDFHEKHAADLTLCVREYDVQIPFGVVEGNDVTVTSIVEKPKHRFFVNAGIYVVTPQAIARVLPSMRVDMPDLIKQIIADQRNVSMFPIREYWLDIGRPEDFDVAQTSIAQLEHHHHHH” as the sequence, how does the “soluble on expression in E. coli” value read?
Answer: not soluble

Question: Which “soluble on expression in E. coli” value does the source give for “MAHHHHHHGSRFLIRLVPEDKDRAFKVPYNHQYYLQGLIYNAIKSSNPKLATYLHEVKGPKLFTYSLFMAEKREHPKGLPYFLGYKKGFFYFSTCVPEIAEALVNGLLMNPEVRLWDERFYLHEIKVLREPKKFNGSTFVTLSPIAVTVVRKGKSYDVPPMEKEFYSIIKDDLQDKYVMAYGDKPPSEFEMEVLIAKPKRFRIKPGIYQTAWHLVFRAYGNDDLLKVGYEVGFGEKNSLGFGMVKVEGNKTTKEAEEQEKITFNSREELKTGV” here?
Answer: soluble

Question: With “MAHHHHHHMAAVTPPTSRALPLEATAIFPPQGSRELDRGAPPLESLSCTKRATAAQHIRGGEGRGAAPCLYIQTVSGSLLPVVLSPSPTHSPIPQRCEQYRDAYANVTICIDTEERSIQRLETFGGGTTITAILCKRYFPPFQ” as the sequence, how does the “soluble on expression in E. coli” value read?
Answer: not soluble

Question: Which “soluble on expression in E. coli” value does the source give for “MAHHHHHHMADAADTLLLSLEVEAAAARNAELSQTIEMLQDEVLRLRRANASLLACDARHCPKVSLQPVETPSATADVSRDESSAAADAREVFVILDDLLFEMADIRSRIILDERVDLTPRAFDSEATVAAHARRCLEEARKLKEAFVVKQHSTAAQVSELRRALGEQAEANQKQTAASALQCAMLERKYDELKRRYDEAVSRQDELVLDGVIQSPSQMLPRS” here?
Answer: soluble

Question: With “MAHHHHHHMADGAAMSLSGQRIPLLKPTLSKWSRQLRSDIYDELLKLPLRYALHDFRTLQAHIHAVPATATNASCTAAAGERLPPGVYHASSGLSSASPDAPAYYAVAGRDSAVGYAPPLGPADPVDVIPFFVHRSSNGHLPGKVYSMNAKTLMPAFYMRIQNIEGDMFRFEEELMKIFPTKKIFVRSHSVYVYNVNLDGRAVLHHWLLGLGF” as the sequence, how does the “soluble on expression in E. coli” value read?
Answer: soluble

Question: For “MAHHHHHHMAEEGSGLHQFWNTQPVPQSSIDAADTVGPLEAAGTVDDVPTDPVAIASTLEWWSPDMDNKDDVRAIYELLRDNYVEDVESMFRFNYSEDFLRWALTPPGYHSSWHVAVRRKRDQMLMGFVSGIPVTMRMGAPKKVLQKNKTTEEKEQGPEEKNNDHKSQAEELYLEPRKICEINFLCVHKLLRAKRLAPILIKEVTRRVHLMNIWQAVYTAGRLLPTPFATADYYHRSLNPEKLVAVGFSAIPQQYQKFQNPLSMIKRFYELPAKPKTRGLRPMEPKDAPQVANLLRKKLATCDVAPVFTDEEVAHYTLPREGVLMSYVVEREVSGGGGGGRVDSSRGKQNDAGTQKQITDFFSFFSLPSSIIGSSKHSVLNAAYVFYSANTTISLVHLMSDLLIVAHQQGFDVCNVVNIMDNGDYLSELKFGRGDGNLHYYFYNWSYPIVQPSDVGLFML”, which “soluble on expression in E. coli” value is on record?
Answer: not soluble

Question: For “MAHHHHHHMAISATGTLAVLKVYQLTDAAARLSRAEVDAALEELMGLRVNDSLVQYLSYCYVPPHRVVLVMQYVPGGTLREMKSRYGRKLPLTAVRRNVASMLRGLAHLHGRGVIHGRLCPENVMVGVEGRWRLKGMLLGAAPLIMHQETYYVSPEVAAGGAKTAANDVYALGLLLLAMLTDSHPWQWSANAALDRSRKELDSLLADSTAFREALRNGLLTPVPTPADTDETLRTVLEACLRTAPGDRPTALRLQELRCDRTS”, which “soluble on expression in E. coli” value is on record?
Answer: not soluble

Question: For “MAHHHHHHMANYQQQYTNAEYTLPNFFETASTVAKVLTPGGRTPTVLAVDVSGQPLLPPPPPESDFAVPEPGQLEKLLCAYVGPSHTLGLSPKQLFDEEIRARNLEMEERKKEMRAITEQYERELRECMMESEQRSVVEDARRAIDLADREALEERKRPLRMYLNHNIIPLLSKGLVEVCKRRPVDPVDFLAEWLMLHNPHDDSCFEL”, which “soluble on expression in E. coli” value is on record?
Answer: not soluble

Question: Which “soluble on expression in E. coli” value does the source give for “MAHHHHHHMCAPLYVSPAVQELAQLNSEAERLMLKRAWCVHTKAHLLRELPWAARDVAAYRVALREALQSFTESQQDAFLIDVVYAQFVCAEGGVLRACVQHALFLDLTYDVRLQQWTLVPLHWNIFTTSAGALLLTLQSVLAGPHAQTPCTPPAAPATAARAPLIAHSRAHGTVDSASPLPEASTPASFVRVDPHDREALHRFMRLAFEQEGLSGELHASNRLVCAVVMDTFAIQLQSLQQSFFTGGGLGRLVEMEVRPGTLISFHLSLPELFVPSAPVAHVKMTVAGGTVMLECVRGTDLSTRRVTLPLGTSSLVASGAVGVNTATWKSSMTVVDMEALLWQCVCASAPS” here?
Answer: not soluble

Question: Which “soluble on expression in E. coli” value does the source give for “MAHHHHHHMCAWNSAIHAYPTAIAPMLVRRPCHAAMNAYTAVASCATALRLSRSHLHAHMLLLLVLTRQRCNLFTLRSDTFLKAVVQMLFSPALLSTLRSAAGVSARSAPPALRQRVAAIA” here?
Answer: not soluble

Question: Which “soluble on expression in E. coli” value does the source give for “MAHHHHHHMCYDCATSSSLVTTILNGMHVFNLDERFYGANLAAGLSASNVESYPYHTIGEEPLMSSCFFNAGQLFAVGSSCGSVTVVSRRSRALTSCYATPDSFPIRSLSEIPAQPNCLLTCTEQGAAIVDVERSQLRMSLANPAAGRAVAAVPLQLHTFVVANYDGKVLLYDTRYRSSPSSVLSLPDQITCLAVSRDTPEVCVGTVGGRVFTLRCAEGPQREQAFGMSNRRSPVRCVAMDNGRIAAGDLAGRLALIDTADVPDPTVYWSAETLLRLPRPSGRARHA” here?
Answer: not soluble

Question: With “MAHHHHHHMDKKRSIVKKPERGSFLLDHNSECTPIKNDYLKCLKEHNNDHVSCREYSKEYFICRMDKNLLERQSLNDLGFSENETNHESRIKHFKDVYSYNVYNETMESFPKGRALKRTDTASGAVFVEEKLTQGKRDNKADMKPARGDDFLLLNLRNDKEGEQKINGKVFEITQEKKIAVKRKEEEGYLAGKEYIKTLVEKKKRHPLFSYNIFKSSNT” as the sequence, how does the “soluble on expression in E. coli” value read?
Answer: soluble

Question: With “MAHHHHHHMDLFSIASNLQQIAIGGVNFVNSKLRKKSATAECNYITYIVIGENEKQPYDTNIFFLPFKICGKIKLEEFKEFFPFKDNVIFRFKIPVSDLIDVINEGIVNHAPLMREDSNERNQVKHIISDENEIKNILRQDQFSHLWVDITSEEAYIPFYNGNIVVKVLFI” as the sequence, how does the “soluble on expression in E. coli” value read?
Answer: not soluble

Question: With “MAHHHHHHMDNSIKIKSAFLKENVGVKITGPCDEGFGLVMVPHIIINVDTRNTDIQLGKKSSEINYGIKLRKKGKDEYEEKVGIDLLKNVCETGKNFKFVAYIKGDELIIKWKVIEEGNIPIDIKKFKIKRMSPPITSIQVFSSMSDEKSFVLENKNYVVTNNMPEKCEALATNCFLSGNIDIEKCYQCSLLVENDSKSDVCYNFISRENKEKLNEERFKVKGSTEYEESVESELKGAIDLLISSFYKSDGENGENVLISFEDLNSTLEDDIINFCSLLKLVDLSGTFMNHQIGTTADAFNNIVKLLKEHKEEDEFVLRTKLRNPALCMKNVDDWVKSRCGLLTSDDSYVVIKKNSDTNGKNENNESNDEEYDGVIDLSTNENGNVKSIQFNDDIYCNDDYCNRWKNENNCISKIGVEDQGNCASSWAFASKLHFETLRCMKGYDHLGISALYLTNCSKGKISKRCTEGGNPSEFLEIVSNSGFLPTEFDYPYFYALVENSCPSGLNKWINLWEDVKLFDYKYEPNSIGSKGYSVYKSEMFKDNMDEYVKMIKSEIKNKGSVIAYINAQSVLTYDFNGKNILNMCGSKTTDHSINVIGYGHYKNKEGEEKSYWLVRNSWGYYWGDEGNFKVDMYGPSNCNYHFINTVLVFNIDIPMMNNNENNKKGLYNYFPKYTHEFYHNFYDQNFGSDNKISLINSNGSNKNDVNNAYTVHGQSGETEVQPSQLRSTANQDSNRGAVTSDPLRTQPETTSTSVKKMDVFQVLKHVKNSKIKVGLIKYDNDDEIGAHHSCTRAYSFDPEKYDECVEFCRKNWEQCKDKPSPGFCLTKLDESKGCFFCYV” as the sequence, how does the “soluble on expression in E. coli” value read?
Answer: not soluble

Question: For “MAHHHHHHMDPLLLGTSAGLERNCTVLFSHLTALCGTKPAGEPHNPLQVHLRVDDGHRDTALQHIKVLYDVAVRHNPRTSVTVVPLAPLEYYETPNRNTNSREGHKLPLFTASLMTPNCGFNPVYKGVAVGGTFDRLHGGHKLLLTTALLHATQVLRIGVTVSTMLTTKIHADLIEPFEVRCAAVTKFAHLLRPDLGLEVAGIADRAGGADSDPSLEALVVSPETVGALPSINTARLSVGLKPLECVLVPYVGVCDDEESRVSSTNIRKRLCELST”, which “soluble on expression in E. coli” value is on record?
Answer: soluble

Question: For “MAHHHHHHMDSEKNSPLEYQETMNDLGEDIEDMEAQSINHGEAKMSVDIKSGKGDKGGEEVDVADAENVESNADNALYIYSTDSAKNILKENLEDYLKQLDFYKSNPKCKIDPAIYMEGTEEVENYVVKEKILITTYYQYIDMYESSIDVEEDLEREEIVYVEVPKYIIKYNPKVITNYIEKTIEVPSGEEIKRPVYKKLNVPYVVPHVVENETQVVLKKIVQPEIHTSNEEIEVEVQKYVPRLVPVNVYVPRYFGLSAKTTDEVEESVHYADLTQEQTDYLMKELNPHLDDLKKFNEEQLERMNEYIRESAQQAESHDLNPPKPELVSYDLDGSIQTLDYSDFTQFKEICQRELTC”, which “soluble on expression in E. coli” value is on record?
Answer: soluble

Question: Which “soluble on expression in E. coli” value does the source give for “MAHHHHHHMDVEERTRRCSSLGLAVRNLPRDTASSFVHKFFEDHVGCVQEVMMHSSRPNQSRNIAAPNTNGVDQGKRGNDDNDPPASFGLSGRRDGNSSSGIAVKTCSNDADGNTLCLVFFSAAECVRLAKLLYMRRPELFNVLGVVDGKELRLTIPSKLIRLSRTAHAHCDDGDNTRSKKSSQGEEDTPKGDAEKNDAGT” here?
Answer: not soluble
